Molecular target: native MSP-3 antigen of Plasmodium falciparum clone 3D7 schizonts and merozoites (Plasmodium falciparum)
Assay: flow cytometry on ethanol-fixed permeabilized schizonts, FITC anti-human Fab

| Substance | percent of events under the bar M1 [%] |
| --- | --- |
| control Fab against HibCP | 2 |
| control antibody against HibCP in the IgG1 format | 4 |

From patent publication US7811569
